± gives the standard deviation of the averaged measurements.
test system: ATP; experiment: switch fluorescence ratio, 500 uM ATP over buffer (Cy3 cluster intensity, sum of 5 cycles each) (fold (ratio)); higher = stronger signal-on switching upon ATP binding; sequences stand for … in TCGTCGGCAGCGTCAGATGTGTATAAGAGACAGTTTTTTTTTTTTTTTTTTTTTTTTT…TC; conditions: aptamer strand: ATP DNA aptamer (quencher-CACCTGGGGGAGTATTGCGGAGGAAGG + anchor), 100 nM annealed; ATP concentration: 500 uM
Outline: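 After annealing to 100 nM quencher-labelled ATP aptamer, Cy3-labelled switching-strand clusters on a modified Illumina MiSeq flow-cell were imaged in selection buffer. A second image followed after 15 min with 500 uM ATP at 22 °C, and five such buffer/ATP cycles were done, each separated by NaOH stripping and re-annealing. The fluorescence ratio, averaged per switch-domain sequence, is summed target-cycle over summed buffer-cycle Cy3 intensity per cluster, with clusters outside 100-1000 RFU excluded.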
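Also: ATP exposure 15 min at 22 °C before imaging.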

Row | Sequence | switch fluorescence ratio
1 | GGGAAAGGGG | 1.01 ± 0.02
2 | GGGAAAGTCG | 1 ± 0.036
3 | GGGAACATTT | 1.022 ± 0.0086
4 | GGGAACGTCG | 1.011 ± 0.01
5 | GGGAACGTGT | 0.997 ± 0.019
6 | GGGAAGAAGC | 0.997 ± 0.054
7 | GGGAAGAGTG | 0.993 ± 0.02
8 | GGGAAGATTA | 0.966 ± 0.031
9 | GGGAAGGTGT | 1.1 ± 0.11
10 | GGGAAGGTTG | 1.04 ± 0.021
11 | GGGAAGTATA | 1 ± 0.027
12 | GGGAAGTCGT | 0.964 ± 0.039
13 | GGGAATACTA | 1.38 ± 0.37
14 | GGGAATAGT | 0.9898 ± 0.0014
15 | GGGAATGCTA | 0.9999 ± 0.0068
16 | GGGAATGTAT | 0.979 ± 0.037
17 | GGGAATTATA | 0.984 ± 0.018
18 | GGGAATTCTA | 0.991 ± 0.021
19 | GGGAATTGGG | 0.997 ± 0.018
20 | GGGAATTGTG | 0.993 ± 0.06
21 | GGGACCAATT | 1 ± 0.022
22 | GGGACGACAG | 1.04 ± 0.031
23 | GGGACGATTG | 0.985 ± 0.059
24 | GGGACGGATT | 1 ± 0.021
25 | GGGACTAGTG | 1 ± 0.029
26 | GGGACTGGTA | 1 ± 0.049

Row | Sequence | switch fluorescence ratio
27 | GGGACTTACC | 1.08 ± 0.02
28 | GGGACTTGGA | 0.9765 ± 0.009
29 | GGGACTTTTT | 0.999 ± 0.043
30 | GGGAGAAAAG | 0.984 ± 0.014
31 | GGGAGAATGG | 0.98 ± 0.028
32 | GGGAGACCAA | 0.9822 ± 0.0031
33 | GGGAGAGAAC | 0.992 ± 0.012
34 | GGGAGAGAGT | 0.999 ± 0.029
35 | GGGAGAGCGG | 0.9662 ± 0.0095
36 | GGGAGAGGCT | 0.9764 ± 0.0016
37 | GGGAGATAGC | 1.06 ± 0.015
38 | GGGAGATTAG | 0.979 ± 0.015
39 | GGGAGCAGGG | 0.909 ± 0.058
40 | GGGAGCCGGT | 1.02 ± 0.015
41 | GGGAGCCTAC | 1.038 ± 0.0081
42 | GGGAGCCTTC | 1.01 ± 0.031
43 | GGGAGCGGGT | 1.04 ± 0.025
44 | GGGAGCTACA | 1.02 ± 0.017
45 | GGGAGCTGAA | 1.04 ± 0.04
46 | GGGAGCTGAG | 1.015 ± 0.0055
47 | GGGAGGAGGA | 0.974 ± 0.026
48 | GGGAGGATGC | 0.993 ± 0.059
49 | GGGAGGCGGG | 0.99 ± 0.019
50 | GGGAGGGAGT | 1.01 ± 0.024
51 | GGGAGGGATG | 1.02 ± 0.024
52 | GGGAGGGCGG | 0.975 ± 0.051

Row | Sequence | switch fluorescence ratio
53 | GGGAGGGCGT | 0.981 ± 0.034
54 | GGGAGGGCTT | 1.05 ± 0.092
55 | GGGAGGTCAG | 0.992 ± 0.035
56 | GGGAGGTTGC | 1.09 ± 0.23
57 | GGGAGGTTTT | 1.04 ± 0.084
58 | GGGAGTAGGC | 0.731 ± 0.022
59 | GGGAGTAGGT | 1.008 ± 0.0094
60 | GGGAGTCGGG | 1.01 ± 0.0092
61 | GGGAGTGATG | 0.986 ± 0.019
62 | GGGAGTTAAT | 0.97 ± 0.019
63 | GGGATAACGG | 0.962 ± 0.018
64 | GGGATAAGGA | 0.99 ± 0.044
65 | GGGATAAGGG | 1.01 ± 0.027
66 | GGGATAATTA | 1.01 ± 0.029
67 | GGGATAGAGG | 0.999 ± 0.051
68 | GGGATAGCCG | 1 ± 0.059
69 | GGGATAGGCA | 1.01 ± 0.039
70 | GGGATAGGGT | 1 ± 0.027
71 | GGGATATAGT | 0.9696 ± 0.0044
72 | GGGATATGAA | 0.992 ± 0.018
73 | GGGATATGGG | 0.995 ± 0.045
74 | GGGATCAGTG | 0.995 ± 0.03
75 | GGGATCATGG | 1.08 ± 0.083
76 | GGGATCCGAC | 1.05 ± 0.041
77 | GGGATCGGGG | 0.988 ± 0.019
78 | GGGATCGGTT | 0.982 ± 0.034

Row | Sequence | switch fluorescence ratio
79 | GGGATCTATA | 0.9721 ± 0.0081
80 | GGGATCTATG | 1.02 ± 0.027
81 | GGGATGAACT | 1.01 ± 0.013
82 | GGGATGAAGA | 1 ± 0.013
83 | GGGATGACGA | 0.98 ± 0.042
84 | GGGATGAGGT | 1 ± 0.033
85 | GGGATGGGAG | 1.02 ± 0.038
86 | GGGATGGGGC | 1.04 ± 0.042
87 | GGGATGGGGG | 1 ± 0.043
88 | GGGATGGTGG | 0.991 ± 0.024
89 | GGGATGTGGT | 1.01 ± 0.023
90 | GGGATGTTGG | 1.006 ± 0.0071
91 | GGGATTAACT | 1 ± 0.031
92 | GGGATTAAGA | 0.98 ± 0.026
93 | GGGATTAATG | 1.01 ± 0.015
94 | GGGATTACGT | 1.03 ± 0.029
95 | GGGATTATTT | 0.972 ± 0.02
96 | GGGATTCAG | 1.0226 ± 0.0002
97 | GGGATTCTTG | 1.01 ± 0.04
98 | GGGATTTCCG | 0.992 ± 0.018
99 | GGGATTTGCG | 1 ± 0.046
100 | GGGATTTGCT | 0.963 ± 0.022
101 | GGGATTTTCC | 0.979 ± 0.044
102 | GGGATTTTCG | 0.98 ± 0.023
103 | GGGATTTTGA | 0.999 ± 0.017
104 | GGGCAAAGGT | 1.09 ± 0.16

Row | Sequence | switch fluorescence ratio
105 | GGGCAAGTGT | 1.06 ± 0.034
106 | GGGCACATGG | 1.02 ± 0.029
107 | GGGCAGATGG | 0.988 ± 0.034
108 | GGGCAGCTGG | 0.981 ± 0.042
109 | GGGCAGGCTT | 0.98 ± 0.017
110 | GGGCAGGTAG | 1.03 ± 0.031
111 | GGGCAGTGGG | 1.05 ± 0.074
112 | GGGCATCGAC | 1.05 ± 0.017
113 | GGGCATCTTT | 1 ± 0.06
114 | GGGCATGGAG | 0.992 ± 0.02
115 | GGGCATGTTG | 1.02 ± 0.03
116 | GGGCCACCAG | 1.01 ± 0.032
117 | GGGCCCGGCA | 0.9814 ± 0.0049
118 | GGGCCGTTGC | 0.948 ± 0.029
119 | GGGCCTGGAA | 1.01 ± 0.069
120 | GGGCCTGGGG | 0.998 ± 0.048
121 | GGGCCTTGGG | 1.03 ± 0.049
122 | GGGCCTTTTT | 0.9864 ± 0.006
123 | GGGCGAAGTC | 0.975 ± 0.03
124 | GGGCGACGGC | 1.04 ± 0.047
125 | GGGCGACGGG | 0.996 ± 0.046
126 | GGGCGAGCTC | 0.9982 ± 0.0061
127 | GGGCGAGGGG | 1.01 ± 0.026
128 | GGGCGCGTTT | 0.9623 ± 0.0072
129 | GGGCGCTAGG | 0.971 ± 0.014
130 | GGGCGCTGGG | 1 ± 0.032

Row | Sequence | switch fluorescence ratio
131 | GGGCGGATTT | 1.024 ± 0.008
132 | GGGCGGCGGG | 1.05 ± 0.053
133 | GGGCGGGATG | 0.984 ± 0.037
134 | GGGCGGGTGT | 0.987 ± 0.059
135 | GGGCGGTGGG | 1 ± 0.068
136 | GGGCGTATGT | 0.981 ± 0.023
137 | GGGCGTTGTG | 1.05 ± 0.11
138 | GGGCTAAAAG | 0.97428 ± 3.4e-05
139 | GGGCTAGACG | 0.997 ± 0.085
140 | GGGCTAGTCA | 0.965 ± 0.019
141 | GGGCTATCCG | 0.983 ± 0.024
142 | GGGCTATGGG | 0.997 ± 0.049
143 | GGGCTCATGG | 1.042 ± 0.0061
144 | GGGCTGAAGG | 1.004 ± 0.01
145 | GGGCTGACAG | 1.035 ± 0.0012
146 | GGGCTGATAG | 1.01 ± 0.025
147 | GGGCTTAACG | 0.982 ± 0.014
148 | GGGCTTATGG | 0.975 ± 0.054
149 | GGGCTTCGTT | 0.9929 ± 0.0074
150 | GGGCTTGGGG | 0.999 ± 0.031
151 | GGGCTTTTTC | 1.02 ± 0.034
152 | GGGGAAAACT | 1.01 ± 0.022
153 | GGGGAAAGTC | 1 ± 0.032

— the supplement of paper PMC10126150
